Measurements as given in patent US20140170162A1, “PRESERVATION OF THE NEUROMUSCULAR JUNCTION (NMJ) AFTER TRAUMATIC NERVE INJURY” (The Regents of the University of California, priority 2012, published 2014).

Experiments:
[1] = target: His-labeled rat recombinant agrin (R&D Systems) (UniProt P25304)
[2] = system: C212 myotubes; assay: In vitro assessment of AChR clustering in myotubes; format: cell-based; settings: FIG. 3A, B
Description: C212 cells were purchased from ATCC (Manassas, Va.). Cells were expanded and differentiated into myotubes as previously described. Five days following differentiation, myotubes were then treated overnight with […] His-labeled rat recombinant agrin (R&D Systems, Minneapolis, Minn.) or […] rat recombinant agrin incubated with […] MMP3 active subunit (Millipore, Billerica, Mass.) for 72 hours. Western blot was performed to confirm cleavage of agrin. After treatment of myotubes with Alexa 555-conjugated a-bungarotoxin (a-BTX; Invitrogen, Carlsbad, Calif.; 1:1,000), samples were fixed according to standard procedures for immunohistochemistry. Ten random fields at 40 magnification were evaluated by a blinded observer for AChR clustering under fluorescent microscopy as previously described. An AChR cluster was defined as an aggregate of at least 4 lm2. Three samples from each treatment group were analyzed.
Agrin was cleaved by MMP3, resulting in a 60 kDa fragment as detected by silver stain.

Sequence of UniProt P25304 (P25304 1153-1959): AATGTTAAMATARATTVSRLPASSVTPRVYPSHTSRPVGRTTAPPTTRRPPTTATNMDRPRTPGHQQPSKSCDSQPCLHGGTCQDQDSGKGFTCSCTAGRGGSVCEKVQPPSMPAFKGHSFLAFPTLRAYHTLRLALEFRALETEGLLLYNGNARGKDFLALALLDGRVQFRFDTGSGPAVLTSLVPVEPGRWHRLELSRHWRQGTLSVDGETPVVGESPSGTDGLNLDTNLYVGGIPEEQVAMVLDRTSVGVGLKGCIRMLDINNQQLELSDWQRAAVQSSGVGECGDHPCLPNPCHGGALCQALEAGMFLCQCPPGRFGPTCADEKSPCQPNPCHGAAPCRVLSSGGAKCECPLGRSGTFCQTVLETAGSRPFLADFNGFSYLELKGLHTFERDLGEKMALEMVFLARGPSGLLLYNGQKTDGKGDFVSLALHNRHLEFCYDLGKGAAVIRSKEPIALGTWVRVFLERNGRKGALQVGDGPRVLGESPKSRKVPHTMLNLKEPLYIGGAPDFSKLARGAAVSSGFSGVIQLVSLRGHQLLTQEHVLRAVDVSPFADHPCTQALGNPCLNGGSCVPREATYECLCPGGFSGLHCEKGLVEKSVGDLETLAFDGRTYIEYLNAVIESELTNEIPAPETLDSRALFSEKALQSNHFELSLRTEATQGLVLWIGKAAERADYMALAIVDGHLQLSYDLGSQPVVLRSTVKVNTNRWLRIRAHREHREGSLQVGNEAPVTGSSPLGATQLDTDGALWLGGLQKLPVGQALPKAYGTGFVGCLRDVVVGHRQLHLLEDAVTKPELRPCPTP

| Substance | AChR clusters/field in C212 myotubes (agrin processed by MMP3, against 7.30 for agrin alone) [1] | cleavage of agrin (silver stain) [1] | degradation of 90 kDa agrin after 72 hours [1] | AChR clustering (images) [2] |
| --- | --- | --- | --- | --- |
| MMP3 active subunit (Millipore) | 7.30 6 0.578 clusters/field vs 2.20 6 0.467 clusters/field | Agrin was cleaved by MMP3, resulting in a 60 kDa fragment as detected by silver stain | Treatment with MMP3 for 72 hours led to complete degradation of 90 kDa agrin | – |
| agrin: His-labeled rat recombinant agrin (R&D Systems), approximately 90 kDa | – | – | – | clustering |
